Target: T1, recombinant Fc-tagged hsCD33 (human, UniProt P20138 18-259)
T1 construct: Soluble staining reagent, detected with a PE-conjugated Fc-specific secondary antibody; not shown: Fc tag
Assay: flow cytometry; JNL cells displaying the scFv CAR, recombinant Fc-tagged hsCD33, PE anti-Fc secondary
Protocol: FIG. 32 is an image depicting cross-reactivity of T cells expressing scFvs targeting CD33 to cynomolgus CD33 (cyCD33) by flow cytometry. JNL cells transduced with a lentiviral vector expressing scFv's raised against hsCD33 were incubated with either recombinant Fc-tagged hsCD33 (dotted line) or cyCD33 (solid line) followed by incubation with an Fc-specific secondary antibody conjugated to phycoerythrin.
Finally, scFv cross-reactivity to cynomolgus CD33 (cyCD33) was assessed by flow cytometry as depicted in FIG. 32. JNL cells transduced with a lentiviral vector expressing scFv's raised against hsCD33 were incubated with either recombinant Fc-tagged hsCD33 (red line) or cyCD33 (blue line) followed by incubation with an Fc-specific secondary antibody conjugated to phycoerythrin. While scFv clones CD33-1, -2, -3, -4, -5, -6, -7, -9, and CD33-UPenn were capable of binding hsCD33, we note that only scFv clone CD33-5 appeared to be cross-reactive to both hsCD33 and cyCD33 (FIG. 32).

T1 sequence (P20138 18-259 limits assumed): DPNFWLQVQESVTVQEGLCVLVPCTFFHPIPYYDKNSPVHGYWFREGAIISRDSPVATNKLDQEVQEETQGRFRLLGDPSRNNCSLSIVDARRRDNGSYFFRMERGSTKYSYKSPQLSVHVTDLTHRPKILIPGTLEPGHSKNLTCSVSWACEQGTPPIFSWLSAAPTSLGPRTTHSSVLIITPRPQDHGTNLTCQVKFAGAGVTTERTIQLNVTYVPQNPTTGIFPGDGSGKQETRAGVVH

B1: CD33-UPenn (scFv based on the sequence of Mylotarg; humanized My96) (scFv, not shown: small tags and cut ends)
chain: EIVLTQSPGSLAVSPGERVTMSCKSSQSVFFSSSQKNYLAWYQQIPGQSPRLLIYWASTRESGVPDRFTGSGSGTDFTLTISSVQPEDLAIYYCHQYLSSRTFGQGTKLEIKRGGGGSGGGGSSGGGSQVQLQQPGAEVVKPGASVKMSCKASGYTFTSYYIHWIKQTPGQGLEWVGVIYPGNDDISYNQKFQGKATLTADKSSTTAYMQLSSLTSEDSAVYYCAREVRLRYFDVWGQGTTVTVSS
notes: also called CAR33-UPenn
  binding result: binds

— patent US20160096892A1 (Novartis, published 2016)
